According to patent US20140256613A1 (BOARD OF REGENTS OF THE UNIVERSITY OF OKLAHOMA, published 2014):
Primed or numbered codes have the meaning given here. No end group written: not given here. FITC′ = fluorescein isothiocyanate; Ahx = NCCCCCC(=O)O

Legend:
[1] = target: T1, recombinant human TLR4-MD2 protein (R&D Systems) (human, UniProt O00206 24-631; Q9Y6Y9 17-160); experiment: fluorescence polarization, 2 µM FITC-SPA4 peptide with increasing recombinant TLR4-MD2, one-site binding fit, one representative experiment
T1 construct: range 24-631;range 17-160; Bought protein, described as a mixture of recombinant human TLR4 and MD2 proteins expressed in NS0 cells; also called recombinant-TLR4-MD2 protein; soluble recombinant TLR4-MD2
Description: The background fluorescence polarization values were subtracted and plotted. The binding plot was then fitted into a one-site binding model using standard regression analysis and Kd values were noted. Results are from one representative experiment out of a total of three separate experiments performed at different times.
Regression analysis was carried out using the Graphpad Prism program (Graphpad software, La Zolla, Calif.). Experimental data were curve-fitted using Graphpad Prism program, and the binding affinity (Kd) was determined.

[2] = target: T1, recombinant human TLR4-MD2 protein (R&D …); experiment: fluorescence polarization, 2 µM FITC-SPA4 with 0-5.6 µM TLR4-MD2, one-site fit, average Kd without blank subtraction; without blank subtraction
Description: (§1) Experimental data were curve-fitted using Graphpad Prism program, and the binding affinity (Kd) was determined.
(§2) Lower values of the Kd indicate strong binding affinity.

[3] = target: T1, recombinant human TLR4-MD2 protein (R&D …); experiment: fluorescence polarization, 2 µM FITC-SPA4 with 0-5.6 µM TLR4-MD2, one-site fit, average Kd with blank subtraction; with blank subtraction
Description: as §1, §2

T1 sequence (O00206 other isoform, or with tags, fused parts or gaps limits assumed, form in doubt, chain 1 of 2): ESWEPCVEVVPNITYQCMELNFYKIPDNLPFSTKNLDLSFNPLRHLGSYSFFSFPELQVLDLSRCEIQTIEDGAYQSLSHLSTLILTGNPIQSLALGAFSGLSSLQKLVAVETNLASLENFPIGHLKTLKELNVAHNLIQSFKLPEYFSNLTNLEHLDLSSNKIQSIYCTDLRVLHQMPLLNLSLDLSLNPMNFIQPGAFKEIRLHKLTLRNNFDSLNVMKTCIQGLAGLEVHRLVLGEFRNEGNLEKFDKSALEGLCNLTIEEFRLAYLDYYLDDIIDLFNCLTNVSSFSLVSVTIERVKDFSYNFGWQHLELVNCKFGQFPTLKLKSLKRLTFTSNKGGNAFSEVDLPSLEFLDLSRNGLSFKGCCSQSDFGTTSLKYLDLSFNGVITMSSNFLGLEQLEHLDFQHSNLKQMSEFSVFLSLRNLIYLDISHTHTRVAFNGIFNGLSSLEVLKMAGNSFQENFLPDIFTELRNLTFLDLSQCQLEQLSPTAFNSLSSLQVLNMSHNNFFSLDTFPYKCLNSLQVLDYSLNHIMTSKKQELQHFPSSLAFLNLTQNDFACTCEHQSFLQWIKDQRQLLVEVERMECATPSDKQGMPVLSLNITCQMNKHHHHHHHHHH
T1 sequence (Q9Y6Y9 other isoform, or with tags, fused parts or gaps limits assumed, form in doubt, chain 2 of 2): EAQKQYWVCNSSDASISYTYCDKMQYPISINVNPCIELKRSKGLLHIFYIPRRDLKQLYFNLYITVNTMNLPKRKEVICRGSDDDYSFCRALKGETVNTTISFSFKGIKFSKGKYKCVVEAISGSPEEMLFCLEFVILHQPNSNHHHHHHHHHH

Kd [1]: 314 nM | Kd [2]: 255 nM | Kd [3]: 407 nM
B1: FITC-SPA4 peptide (peptide)
peptide: {FITC′-Ahx}-GDFRYSDGTPVNYTNWYRGE
notes: also called fluorescein isothiocyanate conjugated SPA4 peptide
